This is an account of results in publication PMC4899739.

The target in this test is chicken type I interleukin-1 receptor (chicken). As to the kind of experiment: SPR; BIAcore 3000, 25 °C; chicken IL-1RI (5 μg/ml in 10 mM sodium acetate, pH 5.5) immobilised on a CM5 chip by amine coupling (~370 RU); IL-1β or mutant flowed at 30 μl/min in 10 mM HEPES pH 7.2, 150 mM NaCl, 0.001% Tween-20; 90 s association and dissociation; 1:1 Langmuir fit. (In general: In SPR one partner is held on a chip, and binding of the other changes the refractive index at the surface.)

“chicken interleukin-1 beta mutant E118K (ligand)”: the equilibrium dissociation constant (Kd) (as a rule, the constant that tells how readily two partners part at equilibrium) was found to be 0.37 nM. As for “chicken interleukin-1 beta mutant T117A (ligand)”, the figure is 0.23 nM; as for “wild-type chicken interleukin-1 beta (ligand)”, 0.12 nM.
